# Assay results from the Human Domainome abundance scans (Beltran et al. 2025).
# ± gives the uncertainty stated by the source.
# B1: Homeobox protein cut-like 1, residues 548 to 629; numbered along this chain, P39880 (parent)
# chain: GEEMDTAEIARQVKEQLIKHNIGQRIFGHYVLGLSQGSVSEILARPKPWNKLTVRGKEPFHKMKQFLSDEQNILALRSIQGR
# Variants of: B1
# Assay: abundance fitness (aPCA) (normalised: wild type 0, dead -1); higher = more abundant; growth selection in yeast, the domain comes from the species named
# Conditions: Homo sapiens
row,Variant,abundance fitness
1,L74F,-0.028 ± 0.054
2,L74G,-0.159 ± 0.026
3,L74H,0.007 ± 0.052
4,L74I,0.032 ± 0.052
5,L74K,0.029 ± 0.036
6,L74M,-0.074 ± 0.041
7,L74N,-0.064 ± 0.059
8,L74P,-0.417 ± 0.049
9,L74Q,0.005 ± 0.042
10,L74R,-0.041 ± 0.026
11,L74S,-0.083 ± 0.032
12,L74T,-0.087 ± 0.041
13,L74V,0.017 ± 0.029
14,L74W,-0.098 ± 0.032
15,L74Y,-0.112 ± 0.054
16,A75C,-0.11 ± 0.049
17,A75D,0.109 ± 0.049
18,A75E,0.092 ± 0.034
19,A75F,-0.066 ± 0.061
20,A75I,-0.146 ± 0.059
21,A75K,0.095 ± 0.04
22,A75L,-0.061 ± 0.032
23,A75M,-0.039 ± 0.037
24,A75N,0.187 ± 0.061
25,A75P,-0.314 ± 0.047
26,A75Q,0.038 ± 0.047

row,Variant,abundance fitness
1,A75R,0.05 ± 0.026
2,A75S,0.041 ± 0.031
3,A75T,0.012 ± 0.037
4,A75V,-0.127 ± 0.033
5,A75W,0.009 ± 0.033
6,A75Y,-0.027 ± 0.05
7,L76A,-0.638 ± 0.052
8,L76C,-0.484 ± 0.061
9,L76D,-0.716 ± 0.092
10,L76E,-0.758 ± 0.063
11,L76G,-0.806 ± 0.04
12,L76I,-0.291 ± 0.066
13,L76K,-0.861 ± 0.12
14,L76M,-0.461 ± 0.054
15,L76N,-0.856 ± 0.16
16,L76P,-0.586 ± 0.12
17,L76Q,-0.6 ± 0.086
18,L76R,-0.945 ± 0.057
19,L76S,-0.697 ± 0.056
20,L76T,-0.752 ± 0.086
21,L76V,-0.357 ± 0.035
22,R77A,0.049 ± 0.03
23,R77C,-0.032 ± 0.046
24,R77D,-0.292 ± 0.057
25,R77E,-0.005 ± 0.035
26,R77F,-0.511 ± 0.07

row,Variant,abundance fitness
1,R77G,-0.086 ± 0.026
2,R77H,-0.096 ± 0.088
3,R77I,-0.116 ± 0.057
4,R77K,0.103 ± 0.043
5,R77L,-0.073 ± 0.032
6,R77M,-0.096 ± 0.042
7,R77N,-0.118 ± 0.057
8,R77P,-0.419 ± 0.062
9,R77Q,0.018 ± 0.042
10,R77S,0.041 ± 0.03
11,R77V,-0.035 ± 0.031
12,R77W,-0.336 ± 0.041
13,S78A,0.042 ± 0.032
14,S78C,-0.107 ± 0.043
15,S78D,0.097 ± 0.039
16,S78E,0.087 ± 0.034
17,S78F,-0.188 ± 0.055
18,S78G,0.003 ± 0.025
19,S78H,-0.053 ± 0.061
20,S78I,-0.066 ± 0.052
21,S78K,0.044 ± 0.04
22,S78M,-0.009 ± 0.043
23,S78N,0.018 ± 0.049
24,S78P,-0.359 ± 0.07
25,S78R,0.003 ± 0.027
26,S78T,0.005 ± 0.04

row,Variant,abundance fitness
1,S78V,-0.139 ± 0.03
2,S78W,-0.201 ± 0.036
3,S78Y,-0.223 ± 0.052
4,I79A,-0.047 ± 0.03
5,I79C,0.003 ± 0.055
6,I79D,-0.233 ± 0.055
7,I79E,-0.058 ± 0.034
8,I79F,-0.086 ± 0.056
9,I79G,-0.203 ± 0.027
10,I79H,-0.009 ± 0.05
11,I79K,0.038 ± 0.041
12,I79L,0.028 ± 0.03
13,I79M,0.046 ± 0.039
14,I79P,-0.229 ± 0.041
15,I79Q,0.011 ± 0.039
16,I79R,-0.065 ± 0.027
17,I79T,-0.157 ± 0.037
18,I79V,0.015 ± 0.028
19,I79W,-0.09 ± 0.04
20,I79Y,-0.097 ± 0.061
21,Q80A,0.034 ± 0.032
22,Q80C,-0.028 ± 0.049
23,Q80D,-0.089 ± 0.056
24,Q80E,0 ± 0.037
25,Q80F,-0.278 ± 0.062
26,Q80G,-0.06 ± 0.027

row,Variant,abundance fitness
1,Q80H,-0.075 ± 0.06
2,Q80I,-0.098 ± 0.059
3,Q80K,-0.12 ± 0.039
4,Q80L,-0.126 ± 0.035
5,Q80M,-0.079 ± 0.038
6,Q80N,-0.026 ± 0.059
7,Q80P,-0.098 ± 0.042
8,Q80R,-0.176 ± 0.028
9,Q80S,-0.017 ± 0.036
10,Q80T,-0.095 ± 0.038
11,Q80V,0 ± 0.03
12,Q80W,-0.307 ± 0.037
13,Q80Y,-0.188 ± 0.055
14,G81A,0.044 ± 0.037
15,G81C,0.027 ± 0.047
16,G81D,0.043 ± 0.04
17,G81E,0.105 ± 0.048
18,G81F,-0.138 ± 0.059
19,G81H,0.04 ± 0.08
20,G81I,0.008 ± 0.057
21,G81K,-0.068 ± 0.054
22,G81L,-0.097 ± 0.042
23,G81N,0.117 ± 0.065
24,G81P,-0.103 ± 0.077
25,G81Q,0.095 ± 0.054
26,G81R,-0.021 ± 0.036

row,Variant,abundance fitness
1,G81S,-0.028 ± 0.038
2,G81T,0.037 ± 0.047
3,G81V,0.024 ± 0.035
4,G81W,-0.077 ± 0.052
5,G81Y,-0.163 ± 0.07
6,R82A,0.013 ± 0.047
7,R82C,-0.054 ± 0.076
8,R82D,-0.092 ± 0.07
9,R82E,0.047 ± 0.05
10,R82G,0.117 ± 0.035
11,R82H,0.063 ± 0.13
12,R82K,0.123 ± 0.07
13,R82L,-0.06 ± 0.047
14,R82M,-0.047 ± 0.056
15,R82N,0.076 ± 0.089
16,R82P,0.065 ± 0.063
17,R82Q,0.172 ± 0.067
18,R82S,0.011 ± 0.046
19,R82T,-0.039 ± 0.052
20,R82V,0.024 ± 0.046
21,R82W,-0.149 ± 0.049
22,R82Y,-0.079 ± 0.067
